The data set in a line: self-splicing fitness, log relative to wild type (ln ratio); higher = more splicing; Tetrahymena group I intron in knt gene, E. coli kanamycin selection, DiMSum; sequences stand for … in CUCUCU…GGAGGGAAAAGUUAUCAGGCAUGCACCUGGUAGCUAGUCUUUAAACCAAUAGAUUGCAUCGGUUUAAAAGGCAAGACCGUCAAAUUGCGGGAAAGGGGUCAACAGCCGUUCAGUACCAAGUCUCAGGGGAAACUUUGAGAUGGCCUUGCAAAGGGUAUGGUAAUAAGCUGACGGACAUGGUCCUAACCACGCAGCCAAGUCCUAAGUCAACAGAUCUUCUGUUGAUAUGGAUGCAGUUCACAGACUAAAUGUCGGUCGGGGAAGAUGUAUUCUUCUCAUAAGAUAUAGUCGGACCUCUCCUUAAUGGGAGCUAGCGGAUGAAGUGAUGCAACACUGGAGCCGCUGGGAACUAAUUUGUAUGCGAAAGUAUAUUGAUUAGUUUUGGAGUACUCGUGGUCG
A digest of the protocol: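 Pooled colonies went to amplicon sequencing on an Illumina HiSeq 2500 after six replicate transformations. The plates were LB agar with 100 μg/mL carbenicillin, 50 μM IPTG and 0.2% rhamnose, with or without 25 μg/mL kanamycin, incubated overnight at 37°C or 30°C. The E. coli BL21(DE3) library had all eight P1ex-region intron nucleotides randomised, the intron placed in the knt kanamycin-resistance gene on pET-22b(+). DiMSum fitness is the error-weighted combination of replicate fold changes, kanamycin against none, normalised to wild type.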

± gives the uncertainty stated by the source.

For UGGCAGCAAUAUUACGCACG, the “self-splicing fitness (ln)” value (30 °C) is -1.22 ± 0.18 and the “self-splicing fitness (ln)” value (37 °C) was found to be 0.284 ± 0.19.
For the sequence UGGCAGCAAUAUUACGCCUG, the “self-splicing fitness (ln)” value reads like this: (30 °C) -1.24 ± 0.097; (37 °C) -0.681 ± 0.13.
Regarding UGGCAGCAAUAUUACGCGGU, the “self-splicing fitness (ln)” value by setting is: (30 °C) -2.54 ± 0.16; (37 °C) -2.62 ± 0.31.
For UGGCAGCAAUAUUACGCUGA, the “self-splicing fitness (ln)” value reads like this: (30 °C) -2.79 ± 0.21; (37 °C) -1.17 ± 0.12.
In the case of UGGCAGCAAUAUUACGCUUA, the “self-splicing fitness (ln)” value reads like this: (30 °C) -0.68 ± 0.088; (37 °C) 0.67 ± 0.1.
For UGGCAGCAAUAUUACGCUUU the same measures were -1.24 ± 0.076 and -0.763 ± 0.1.
On to UGGCAGCAAUAUUACGGAGA, for which the “self-splicing fitness (ln)” value (30 °C) was -2.9 ± 0.42 and the “self-splicing fitness (ln)” value (37 °C) was -1.46 ± 0.41.
With UGGCAGCAAUAUUACGGCAC, the “self-splicing fitness (ln)” value by setting is: (30 °C) -2.27 ± 0.25; (37 °C) -1.17 ± 0.16.
Consider UGGCAGCAAUAUUACGGCAU, for which the “self-splicing fitness (ln)” value runs as follows: (30 °C) -1.18 ± 0.083; (37 °C) -0.388 ± 0.092.
With UGGCAGCAAUAUUACGGUAC, the “self-splicing fitness (ln)” value reads like this: (30 °C) -2.66 ± 0.2; (37 °C) -2.01 ± 0.31.
For the sequence UGGCAGCAAUAUUACGGUCA, the “self-splicing fitness (ln)” value is -2.12 ± 0.18 (30 °C) and -1.58 ± 0.15 (37 °C).
For the sequence UGGCAGCAAUAUUACGGUCG, the “self-splicing fitness (ln)” value runs as follows: (30 °C) -0.881 ± 0.083; (37 °C) 0.133 ± 0.13.
As to UGGCAGCAAUAUUACGGUUA, the “self-splicing fitness (ln)” value (30 °C) is -0.000429 ± 0.076 and the “self-splicing fitness (ln)” value (37 °C) was determined as 0.0782 ± 0.092.
On the same counts, the results for UGGCAGCAAUAUUACGGUUC are -2.14 ± 0.2 and -0.624 ± 0.19.
For UGGCAGCAAUAUUACGUAAG, the “self-splicing fitness (ln)” value reads like this: (30 °C) -0.674 ± 0.049; (37 °C) 0.00441 ± 0.073.
As for UGGCAGCAAUAUUACGUACU, the “self-splicing fitness (ln)” value worked out at 0.384 ± 0.091 (30 °C) and 0.181 ± 0.12 (37 °C).
Regarding UGGCAGCAAUAUUACGUAGC, the “self-splicing fitness (ln)” value runs as follows: (30 °C) -4.18 ± 0.29; (37 °C) -2.28 ± 0.19.
For UGGCAGCAAUAUUACGUAGU the same measures were -2.99 ± 0.15 and -1.8 ± 0.2.
As for UGGCAGCAAUAUUACGUCGC, the “self-splicing fitness (ln)” value was -3.89 ± 0.31 (30 °C) and -2.95 ± 0.43 (37 °C).
For UGGCAGCAAUAUUACGUGAA, the “self-splicing fitness (ln)” value by setting is: (30 °C) -0.78 ± 0.058; (37 °C) -0.431 ± 0.084.
On to UGGCAGCAAUAUUACGUGAG, for which the “self-splicing fitness (ln)” value is -0.544 ± 0.047 (30 °C) and 0.438 ± 0.077 (37 °C).
As to UGGCAGCAAUAUUACGUUUG, the “self-splicing fitness (ln)” value runs as follows: (30 °C) -0.921 ± 0.06; (37 °C) -0.496 ± 0.089.
As to UGGGAGCAAUAUUACGAACU, the “self-splicing fitness (ln)” value is -0.981 ± 0.1 (30 °C) and -1.42 ± 0.19 (37 °C).
Take UGGGAGCAAUAUUACGAAGG: where the note is “37 °C”, the “self-splicing fitness (ln)” value was -1.1 ± 0.41.
Consider UGGGAGCAAUAUUACGACGA, for which the “self-splicing fitness (ln)” value (37 °C) is -0.296 ± 0.36.
Consider UGGGAGCAAUAUUACGAGCG, for which the “self-splicing fitness (ln)” value (30 °C) is -1.56 ± 0.14 and the “self-splicing fitness (ln)” value (37 °C) was -0.816 ± 0.15.
Take UGGGAGCAAUAUUACGAUCA: the “self-splicing fitness (ln)” value runs as follows: (30 °C) -0.66 ± 0.22; (37 °C) -0.124 ± 0.19.
In the case of UGGGAGCAAUAUUACGAUCG, the “self-splicing fitness (ln)” value (30 °C) was -1.33 ± 0.13 and the “self-splicing fitness (ln)” value (37 °C) is -0.561 ± 0.15.
On to UGGGAGCAAUAUUACGCACA, for which the “self-splicing fitness (ln)” value is, setting by setting: (30 °C) -0.967 ± 0.35; (37 °C) 0.399 ± 0.35.
For UGGGAGCAAUAUUACGCAGA the same measures were -1.08 ± 0.48 and -3 ± 0.35.
As for UGGGAGCAAUAUUACGCAGC, the “self-splicing fitness (ln)” value (37 °C) was -3.01 ± 0.49.
With UGGGAGCAAUAUUACGCGCA, the “self-splicing fitness (ln)” value (30 °C) was -1.66 ± 0.15 and the “self-splicing fitness (ln)” value (37 °C) is -1.16 ± 0.19.
On to UGGGAGCAAUAUUACGCUCA, for which, for the setting “37 °C”, the “self-splicing fitness (ln)” value is -2.72 ± 0.28.
For UGGGAGCAAUAUUACGGAAU, the “self-splicing fitness (ln)” value (37 °C) was -1.69 ± 0.48.
As for UGGGAGCAAUAUUACGGACU, the “self-splicing fitness (ln)” value (30 °C) is -1.17 ± 0.36 and the “self-splicing fitness (ln)” value (37 °C) was -2.35 ± 0.46.
With UGGGAGCAAUAUUACGGCGU, where the note is “37 °C”, the “self-splicing fitness (ln)” value was -0.706 ± 0.28.
On to UGGGAGCAAUAUUACGUAGG, for which the “self-splicing fitness (ln)” value reads like this: (30 °C) -3.24 ± 0.31; (37 °C) -1.93 ± 0.32.
Turning to UGGGAGCAAUAUUACGUCCU, the “self-splicing fitness (ln)” value (37 °C) is -1.3 ± 0.26.
Consider UGGGAGCAAUAUUACGUGUA, for which the “self-splicing fitness (ln)” value (37 °C) was -2.2 ± 0.26.
Turning to UGGGAGCAAUAUUACGUUGC, the “self-splicing fitness (ln)” value (30 °C) was -3.43 ± 0.4 and the “self-splicing fitness (ln)” value (37 °C) was -1.53 ± 0.23.
In the case of UGGUAGCAAUAUUACGAACA, the “self-splicing fitness (ln)” value was -0.325 ± 0.15 (30 °C) and 0.205 ± 0.27 (37 °C).

For the origin of these results see the supplement of paper PMC7877785.
